From patent US20110044984A1 (Chugai, published 2011)

Target: T1, extracellular domain of mouse AXL (mAXL-ECD; R&D) (mouse, UniProt Q00993 19-445)
T1 construct: extracellular domain; Bought protein
T1 sequence (looked up): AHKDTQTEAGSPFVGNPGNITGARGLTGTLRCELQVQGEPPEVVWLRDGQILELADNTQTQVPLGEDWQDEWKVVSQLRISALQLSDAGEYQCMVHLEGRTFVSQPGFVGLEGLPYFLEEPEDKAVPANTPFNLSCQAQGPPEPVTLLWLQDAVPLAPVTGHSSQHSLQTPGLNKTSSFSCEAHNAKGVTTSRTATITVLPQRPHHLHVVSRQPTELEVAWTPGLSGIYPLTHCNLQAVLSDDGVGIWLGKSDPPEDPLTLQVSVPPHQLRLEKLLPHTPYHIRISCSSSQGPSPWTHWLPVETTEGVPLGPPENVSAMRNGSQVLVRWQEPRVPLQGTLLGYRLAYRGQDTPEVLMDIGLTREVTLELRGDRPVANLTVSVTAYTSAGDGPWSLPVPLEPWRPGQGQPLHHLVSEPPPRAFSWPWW
Experiment: ELISA, antibody at 3 µg/mL on coated mAXL-ECD
Procedure: After the extracellular domain of mouse AXL (hereinafter referred to as mAXL-ECD; R&D) was diluted with coating buffer (100 mM sodium bicarbonate buffer, pH 9.6) to 2 μg/mL, 100 μL was dispensed into a 96-well plate (Nunc-Immuno™ 96 MicroWell™ MaxiSorp™ plates; Nalge Nunc International). After the plate was placed in a refrigerator overnight, the antibody solution in the plate was removed, 200 μL/well of diluent buffer (BlockingOne; Nacalai Tesque) was dispensed, and then blocked for two hours at room temperature. After the removal of the diluent buffer, the anti-AXL antibody prepared above diluted to 3 μg/mL with diluent buffer was dispensed at 100 μL/well, and allowed to stand for 1.5 hours at room temperature. After the removal of the antibody solution, the wells were washed three times with tPBS(−). […] After the removal of the antibody solution, the wells were washed three times with tPBS(−). 100 μL/well of alkaline phosphatase chromogenic substrate solution (BluePhos Microwell Phosphatase Substrate System, Kirkegaad & Perry Laboratories) was dispensed, followed by color development at room temperature. The absorbance at 650 nm was then measured with a microplate reader (Emax, Molecular Devices).

binding result: binds
B1: anti-AXL monoclonal antibody Ax225 (hybridoma AXL No. 225 #070402, Accession No. FERM BP-10854) (antibody, V domains shown)
VH: QVQLKQSGPGLVAPSQSLSITCTVSGLSLTSFGVDWVRQSPGKGLEWLGVIWGGGSTNYNSALKSRLSISKDNSKSQVFLKMNSLQTDDTAMYYCAGEGSKYGAWFAYWGQGTLVTVSS
VL: DVLMTQTPLSLPVSLGDQASISCRSSQNIVHTNGNTYLEWYLQKPGQSPELLIYKVSNRFSGVPDRFSGSGSGTDFTLKISRVEAEDLGVYYCFQGSHIPFTFGTGTKLEIK
notes: Mouse antibody from a hybridoma; Variable genes were amplified with constant region primers MHCg1 (H chain) and MLCk (L chain); also called AXL225 mouse antibody
